Source: paper PMC9802656 (Science Translational Medicine, 2022)

Legend:
[1] = molecular target: SARS-CoV-2 S protein S1 (SARS-CoV-2, ancestral (WT), UniProt P0DTC2); assay: ELISA; conditions: both partners purified
[2] = molecular target: SARS-CoV-2 S protein receptor binding domain (RBD) (SARS-CoV-2, ancestral (WT), UniProt P0DTC2); assay: crystal structure; conditions: both partners purified

| Binder | binding result [1] | binding result [2] |
| --- | --- | --- |
| monoclonal antibody m31A7 (IgG) (antibody, V domains shown) VH: EVQLQQSGPEMVKPGASVKISCKTSGYTFTEYTIYWVKQSHGKSLEWLGGINPNIGDTTYNQKFKGKATLTVDTSSSTAYMELRSLTSEDSAVYYCAREVYNYSFAYWGQGTLVTVSA VL: DIVMSQSPSSLAVSVGEKVTMSCKSSQSLLYSSNQKNYLAWYQQKLGQTPKLLIYWASSRESGVPDRFTGSGSGTDFTLTISSVRAEDLAVYYCQQYYRYPLTFGVGTKLELK | binds |  |
| m31A7 Fab (Fab, V domains shown) VH: EVQLQQSGPEMVKPGASVKISCKTSGYTFTEYTIYWVKQSHGKSLEWLGGINPNIGDTTYNQKFKGKATLTVDTSSSTAYMELRSLTSEDSAVYYCAREVYNYSFAYWGQGTLVTVSA VL: DIVMSQSPSSLAVSVGEKVTMSCKSSQSLLYSSNQKNYLAWYQQKLGQTPKLLIYWASSRESGVPDRFTGSGSGTDFTLTISSVRAEDLAVYYCQQYYRYPLTFGVGTKLELK |  | binds |
